B1: ectodomain of PTP-sigma (domain or fragment, UniProt Q13332 30-1282, looked up)
chain: EEPPRFIKEPKDQIGVSGGVASFVCQATGDPKPRVTWNKKGKKVNSQRFETIEFDESAGAVLRIQPLRTPRDENVYECVAQNSVGEITVHAKLTVLREDQLPSGFPNIDMGPQLKVVERTRTATMLCAASGNPDPEITWFKDFLPVDPSASNGRIKQLRSETFESTPIRGALQIESSEETDQGKYECVATNSAGVRYSSPANLYVRELREVRRVAPRFSILPMSHEIMPGGNVNITCVAVGSPMPYVKWMQGAEDLTPEDDMPVGRNVLELTDVKDSANYTCVAMSSLGVIEAVAQITVKSLPKAPGTPMVTENTATSITITWDSGNPDPVSYYVIEYKSKSQDGPYQIKEDITTTRYSIGGLSPNSEYEIWVSAVNSIGQGPPSESVVTRTGEQAPASAPRNVQARMLSATTMIVQWEEPVEPNGLIRGYRVYYTMEPEHPVGNWQKHNVDDSLLTTVGSLLEDETYTVRVLAFTSVGDGPLSDPIQVKTQQGVPGQPMNLRAEARSETSITLSWSPPRQESIIKYELLFREGDHGREVGRTFDPTTSYVVEDLKPNTEYAFRLAARSPQGLGAFTPVVRQRTLQSKPSAPPQDVKCVSVRSTAILVSWRPPPPETHNGALVGYSVRYRPLGSEDPEPKEVNGIPPTTTQILLEALEKWTQYRITTVAHTEVGPGPESSPVVVRTDEDVPSAPPRKVEAEALNATAIRVLWRSPAPGRQHGQIRGYQVHYVRMEGAEARGPPRIKDVMLADAQWETDDTAEYEMVITNLQPETAYSITVAAYTMKGDGARSKPKVVVTKGAVLGRPTLSVQQTPEGSLLARWEPPAGTAEDQVLGYRLQFGREDSTPLATLEFPPSEDRYTASGVHKGATYVFRLAARSRGGLGEEAAEVLSIPEDTPRGHPQILEAAGNASAGTVLLRWLPPVPAERNGAIVKYTVAVREAGALGPARETELPAAAEPGAENALTLQGLKPDTAYDLQVRAHTRRGPGPFSPPVRYRTFLRDQVSPKNFKVKMIMKTSVLLSWEFPDNYNSPTPYKIQYNGLTLDVDGRTTKKLITHLKPHTFYNFVLTNRGSSLGGLQQTVTAWTAFNLLNGKPSVAPKPDADGFIMVYLPDGQSPVPVQSYFIVMVPLRKSRGGQFLTPLGSPEDMDLEELIQDISRLQRRSLRHSRQLEVPRPYIAARFSVLPPTFHPGDQKQYGGFDNRGLEPGHRYVLFVLAVLQKSEPTFAASPFSDPFQLDNPDPQPIVDGEEG
notes: receptor-type tyrosine-protein phosphatase sigma, ectodomain; Probably a human Fc fusion, since it was detected with an anti-human secondary; also called PTP-sigma ectodomain; not shown: Fc (human)
B2: NT-3 (ligand, UniProt P20783 139-257, looked up)
chain: YAEHKSHRGEYSVCDSESLWVTDKSSAIDIRGHQVTVLGEIKTGNSPVKQYFYETRCKEARPVKNGCRGIDDKHWNSQCKTSQTYVRALTSENNKLVGWRWIRIDTSCVCALSRKIGRT
modifications: biotin (NT-3-biotin in the flow cytometry binding assay)
notes: neurotrophin-3, soluble growth factor; also called NT-3-biotin

Experiments:
TrkC ECD (Homo sapiens) = TrkC ECD (Homo sapiens) (UniProt Q16288); details: cited from earlier work
TrkC ECD (Homo sapiens), sequence (Q16288 32-429): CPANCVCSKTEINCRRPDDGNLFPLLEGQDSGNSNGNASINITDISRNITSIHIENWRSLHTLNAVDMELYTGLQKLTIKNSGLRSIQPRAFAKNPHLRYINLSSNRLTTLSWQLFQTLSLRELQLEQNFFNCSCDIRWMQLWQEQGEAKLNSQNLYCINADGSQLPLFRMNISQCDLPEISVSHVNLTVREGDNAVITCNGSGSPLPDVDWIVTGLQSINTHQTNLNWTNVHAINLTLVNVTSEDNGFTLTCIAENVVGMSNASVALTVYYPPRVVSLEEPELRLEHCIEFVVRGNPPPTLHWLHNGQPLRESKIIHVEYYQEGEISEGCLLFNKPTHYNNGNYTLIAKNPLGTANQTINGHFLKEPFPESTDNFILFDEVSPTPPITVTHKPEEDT

[1] = target: TrkC-FL D5 (Homo sapiens) (UniProt Q16288); details: cited from earlier work
TrkC-FL D5 (Homo sapiens), sequence (Q16288 300-413): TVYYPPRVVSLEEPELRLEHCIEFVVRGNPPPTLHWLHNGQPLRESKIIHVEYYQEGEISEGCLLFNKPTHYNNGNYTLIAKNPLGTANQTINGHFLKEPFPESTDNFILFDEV

[2] = target: truncated TrkC.T1 receptor; test: co-IP; HEK293 lysates expressing TrkC.T1, TrkC-FL or TrkC-Δ-ICD; immunoprecipitated with a pan-TrkC antibody; reducing and non-reducing SDS-PAGE; blotted with two anti-PDI mAbs or anti-pan-TrkC
truncated TrkC.T1 receptor, sequence (Q16288 32-839): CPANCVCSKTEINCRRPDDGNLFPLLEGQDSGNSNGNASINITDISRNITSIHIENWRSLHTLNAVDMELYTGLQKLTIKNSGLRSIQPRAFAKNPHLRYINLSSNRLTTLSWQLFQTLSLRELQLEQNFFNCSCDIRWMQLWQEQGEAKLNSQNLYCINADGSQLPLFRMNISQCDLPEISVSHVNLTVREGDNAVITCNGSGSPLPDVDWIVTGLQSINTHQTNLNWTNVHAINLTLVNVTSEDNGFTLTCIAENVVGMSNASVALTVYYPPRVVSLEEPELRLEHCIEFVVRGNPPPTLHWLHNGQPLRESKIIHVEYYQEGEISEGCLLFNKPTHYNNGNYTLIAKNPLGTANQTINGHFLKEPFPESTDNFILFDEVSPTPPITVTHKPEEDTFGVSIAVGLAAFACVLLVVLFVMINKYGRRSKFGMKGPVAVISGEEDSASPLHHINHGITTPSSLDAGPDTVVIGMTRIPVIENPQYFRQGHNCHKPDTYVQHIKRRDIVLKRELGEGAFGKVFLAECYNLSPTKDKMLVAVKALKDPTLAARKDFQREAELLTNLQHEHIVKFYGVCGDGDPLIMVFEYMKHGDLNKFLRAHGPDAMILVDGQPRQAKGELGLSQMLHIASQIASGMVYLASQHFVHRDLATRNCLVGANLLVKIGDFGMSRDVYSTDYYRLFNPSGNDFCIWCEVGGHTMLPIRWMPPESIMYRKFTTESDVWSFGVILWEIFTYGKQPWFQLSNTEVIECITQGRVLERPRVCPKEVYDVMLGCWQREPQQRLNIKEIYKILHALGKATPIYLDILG

[3] = target: T1, full-length TrkC (TrkC-FL) (UniProt Q16288 32-839); test: cell-based or functional assay
T1 sequence (Q16288 32-839): as above

[4] = target: truncated TrkC.T1 receptor; test: flow cytometry on cells; quantitative flow cytometry on live, non-permeabilised cells stably transfected with TrkC-FL or TrkC.T1; ligand at saturating concentration; read-out is fold-increase in mean fluorescence intensity over controls; NT-3-biotin detected with avidin-fluorescein, PTP-sigma with anti-human secondary
[5] = target: T1, full-length TrkC (TrkC-FL); test: as above; details: one partner purified
[6] = target: T1, full-length TrkC (TrkC-FL); test: cell-based or functional assay; remark: listed apart in the source

Molecule	EC50 of bioactivity from dose-response curves (cell survival via TrkC-FL) [3]	fold-increase in ligand binding over controls (mean fluorescence intensity) [4]	fold-increase in ligand binding over controls (mean fluorescence intensity) [5]	other results
PTP-sigma (from UniProt Q13332)				Kd (TrkC ECD (Homo sapiens)): 9.3 nM
NT-3 (from UniProt P20783)				Kd [1]: 0.05 nM
Protein Disulfide Isomerase (PDI) (from UniProt P07237 18-508) (enzyme)				fold associated PDI (PDI/TrkC ratio) against TrkC-FL and TrkC-Δ-ICD [2]: 4 to 6 fold
B1	8 nM	3.7 fold	5 fold	cell survival (MTT) of TrkC-FL-expressing cells in serum-free media, efficacy relative to 2 nM NT-3 (100%) [6]: 105 % of 2 nM NT-3
B2	0.2 nM	7 fold	9 fold	

Source: article PMC7452315, “Alternative Splicing of a Receptor Intracellular Domain Yields Different Ectodomain Conformations, Enabling Isoform-Selective Functional Ligands” (iScience, 2020)
